B1: Suppressor of kinetochore protein 1 (Schizosaccharomyces pombe (strain ATCC 38366 / 972)), Q9Y709 (parent)
chain: MSKIKLISSDNEEFVVDQLIAERSMLIKNMLEDVGEINVPIPLPNVSSNVLRKVLEWCEHHKNDLYSGTEEESDIRLKKSTDIDEWDRKFMAVDQEMLFEIVLASNYLDIKPLLDTGCKTVANMIRGKSPEDIRKTFNIPNDFTPEEEEQIRKENEWAEDR
partner: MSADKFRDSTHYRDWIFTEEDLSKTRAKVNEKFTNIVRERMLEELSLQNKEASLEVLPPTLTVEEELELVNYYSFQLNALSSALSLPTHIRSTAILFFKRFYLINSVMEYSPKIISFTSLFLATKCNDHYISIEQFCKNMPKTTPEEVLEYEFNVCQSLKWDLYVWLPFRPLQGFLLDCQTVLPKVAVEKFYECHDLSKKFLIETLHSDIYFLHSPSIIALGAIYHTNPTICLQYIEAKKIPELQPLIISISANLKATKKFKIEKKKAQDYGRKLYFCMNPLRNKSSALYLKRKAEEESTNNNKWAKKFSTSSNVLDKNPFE

Variants of: B1
Conditions: with cgm2_schpo mcs2, P36613

Variant	effect of a mutation on the interaction
I139N	decreasing interaction
